Laboratory results taken from PMC8251345, “Entropic pressure controls the oligomerization of the Vibrio cholerae ParD2 antitoxin” (Acta Crystallographica. Section D, Structural Biology, 2021).
“And” between values parts separate entries of the source, which are not always exact repeats. Equal entries are not always repeated. Where two headings read alike, the source gives them in different places.

Experiments:
[1] = molecular target: N-terminal domain of Vibrio cholerae ParD2 as crystallised (V. cholerae); assay: crystal structure
[2] = molecular target: N-terminal domain of Vibrio cholerae ParD2 as crystallised (V. cholerae); assay: crystal structure; remark: listed apart in the source
native MS = molecular target: the molecule itself; assay: native MS
SAXS (SEC-SAXS) = molecular target: the molecule itself; assay: SAXS (SEC-SAXS)
[3] = molecular target: the molecule itself; assay: […]; pH 8.0 and pH 5.6, […]

## N-terminal domain of Vibrio cholerae ParD2 as crystallised (domain or fragment)
[1]
  stoichiometry N: 2
[2]
  stoichiometry N: 16

B1: Vibrio cholerae ParD2 antitoxin (natural protein)
chain: MAKNTSITLGEHFDGFITSQIQSGRYGSASEVIRSALRLLENQETKLQSLRQLLIEGEQSGDADYDLDSFINELDSENIR
notes: also called VcParD2
Native MS
  stoichiometry N: 2 and 4
SAXS (SEC-SAXS)
  stoichiometry N: 12
[3]
  stoichiometry N: 10 and 8
